# B1: CMRF35-like molecule 7 (Homo sapiens), A8K4G0 (parent)
# chain: MWLPPALLLLSLSGCFSIQGPESVRAPEQGSLTVQCHYKQGWETYIKWWCRGVRWDTCKILIETRGSEQGEKSDRVSIKDNQKDRTFTVTMEGLRRDDADVYWCGIERRGPDLGTQVKVIVDPEGAASTTASSPTNSNMAVFIGSHKRNHYMLLVFVKVPILLILVTAILWLKGSQRVPEEPGEQPIYMNFSEPLTKDMAT
# partner: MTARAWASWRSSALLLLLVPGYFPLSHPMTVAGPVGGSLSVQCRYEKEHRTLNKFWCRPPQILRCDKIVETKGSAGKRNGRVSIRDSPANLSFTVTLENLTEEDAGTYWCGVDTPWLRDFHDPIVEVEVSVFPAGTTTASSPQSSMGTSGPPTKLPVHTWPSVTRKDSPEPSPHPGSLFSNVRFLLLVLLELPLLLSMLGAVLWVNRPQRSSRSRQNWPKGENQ
# B2: CMRF35-like molecule 7 (Homo sapiens), A8K4G0 (parent)
# chain: B1 chain
# partner: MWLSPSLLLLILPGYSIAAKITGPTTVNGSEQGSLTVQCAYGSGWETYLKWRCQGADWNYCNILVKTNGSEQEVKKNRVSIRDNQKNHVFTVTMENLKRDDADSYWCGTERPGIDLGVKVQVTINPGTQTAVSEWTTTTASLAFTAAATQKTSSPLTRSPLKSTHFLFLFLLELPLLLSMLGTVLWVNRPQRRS
# B3: CMRF35-like molecule 7 (Homo sapiens), A8K4G0 (parent)
# chain: B1 chain
# partner: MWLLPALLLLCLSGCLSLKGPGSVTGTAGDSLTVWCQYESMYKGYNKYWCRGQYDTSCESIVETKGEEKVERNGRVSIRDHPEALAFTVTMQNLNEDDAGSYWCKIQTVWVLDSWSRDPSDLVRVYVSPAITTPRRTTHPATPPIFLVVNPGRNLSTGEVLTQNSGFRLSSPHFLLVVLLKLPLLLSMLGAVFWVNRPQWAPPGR
# B4: CMRF35-like molecule 7 (Homo sapiens), A8K4G0 (parent)
# chain: B1 chain
# partner: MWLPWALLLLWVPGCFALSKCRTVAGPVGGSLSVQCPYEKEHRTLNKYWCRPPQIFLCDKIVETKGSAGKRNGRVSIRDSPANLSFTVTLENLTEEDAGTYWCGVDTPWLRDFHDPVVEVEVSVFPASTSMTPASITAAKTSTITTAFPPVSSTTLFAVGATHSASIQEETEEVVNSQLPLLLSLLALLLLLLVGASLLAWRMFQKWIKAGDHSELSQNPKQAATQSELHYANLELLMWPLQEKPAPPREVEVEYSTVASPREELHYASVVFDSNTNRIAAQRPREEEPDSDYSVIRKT
# B5: CMRF35-like molecule 7 (Homo sapiens), A8K4G0 (parent)
# chain: B1 chain
# partner: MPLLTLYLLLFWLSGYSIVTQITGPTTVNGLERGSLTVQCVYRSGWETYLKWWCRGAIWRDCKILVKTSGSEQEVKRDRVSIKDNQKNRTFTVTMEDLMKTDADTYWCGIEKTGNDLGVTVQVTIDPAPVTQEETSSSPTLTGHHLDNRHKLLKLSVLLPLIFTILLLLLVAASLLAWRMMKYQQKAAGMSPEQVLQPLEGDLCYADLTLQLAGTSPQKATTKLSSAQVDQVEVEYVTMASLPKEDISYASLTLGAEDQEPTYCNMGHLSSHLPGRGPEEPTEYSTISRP
# Variants of: B1
# Conditions: with clm6_human CD300C
row,Variant,effect of a mutation on the interaction
1,R95G;D97G,with no effect
2,E28A;Q29G,decreasing interaction strength

# Variants of: B2
# Conditions: with clm5_human CD300LD
row,Variant,effect of a mutation on the interaction
1,E28A;Q29G,decreasing interaction strength

# Variants of: B3
# Conditions: with clm2_human CD300E
row,Variant,effect of a mutation on the interaction
1,E28A;Q29G,decreasing interaction strength

# Variants of: B4
# Conditions: with clm8_human CD300A
row,Variant,effect of a mutation on the interaction
1,E28A;Q29G,decreasing interaction strength

# Variants of: B5
# Conditions: with clm1_human CD300LF
row,Variant,effect of a mutation on the interaction
1,E28A;Q29G,decreasing interaction strength
